Source: patent publication US20220064327A1 (KYMAB, published 2022)

Columns and labels:
human factor IX = target: T1, human factor IX (human, UniProt P00740 47-461, 12 glutamic acid residues of the GLA domain are post-translationally γ-carboxylated); assay: SPR (Biacore 8K), antibody captured on anti-human IgG Fc CM4 chip, human FIX injected alone as analyte (10 µM, 180 s per Example 11) [i), B(i]
T1 construct: Zymogen used as analyte in SPR, reconstituted at 1 mg/ml; also called FIX; Human FIX (MW ~55 KDa)
T1 sequence (P00740 47-461 limits assumed): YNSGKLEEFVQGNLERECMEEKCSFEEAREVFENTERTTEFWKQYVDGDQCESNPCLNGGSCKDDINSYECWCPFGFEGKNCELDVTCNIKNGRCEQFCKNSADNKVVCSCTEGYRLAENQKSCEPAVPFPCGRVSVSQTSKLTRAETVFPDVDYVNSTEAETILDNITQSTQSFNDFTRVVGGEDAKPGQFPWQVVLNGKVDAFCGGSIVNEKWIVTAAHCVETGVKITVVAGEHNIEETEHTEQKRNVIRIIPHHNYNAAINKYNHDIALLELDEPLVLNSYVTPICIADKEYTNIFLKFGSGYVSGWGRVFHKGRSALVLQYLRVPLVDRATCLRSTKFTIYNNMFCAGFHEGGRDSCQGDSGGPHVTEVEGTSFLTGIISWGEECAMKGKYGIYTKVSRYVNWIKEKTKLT
Protocol: (§1) The binding kinetics of the purified bispecific antibody was compared to an isotype control (ISTC). […] FIG. 21A.
(§2) Bispecific antibody (ligand), which had been purified by Protein A capture followed by ion exchange chromatography, was captured on to the anti-human IgG Fc CM4 surface at approximately 2 μg/ml. The ligand was injected at 10 μg/ml for 60 seconds at 10 μl/min in one active channel. The run was performed at 25° C. using neutral pH HBS-P 1×+CaCl₂ 2.5 mM as running buffer.

human factor X = target: T2, human factor X (human, UniProt P00742 41-179; P00742 183-488); assay: SPR, bispecific captured on anti-human IgG Fc, FIX then FX injected
T2 construct: Zymogen used as analyte in SPR; also called FX; Human FX (MW ~58 KDa)
T2 sequence (P00742 41-179, chain 1 of 2): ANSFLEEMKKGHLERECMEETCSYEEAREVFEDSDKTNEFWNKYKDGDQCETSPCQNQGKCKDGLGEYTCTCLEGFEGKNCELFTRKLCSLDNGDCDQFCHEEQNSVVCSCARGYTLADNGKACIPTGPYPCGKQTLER
T2 sequence (P00742 183-488, chain 2 of 2): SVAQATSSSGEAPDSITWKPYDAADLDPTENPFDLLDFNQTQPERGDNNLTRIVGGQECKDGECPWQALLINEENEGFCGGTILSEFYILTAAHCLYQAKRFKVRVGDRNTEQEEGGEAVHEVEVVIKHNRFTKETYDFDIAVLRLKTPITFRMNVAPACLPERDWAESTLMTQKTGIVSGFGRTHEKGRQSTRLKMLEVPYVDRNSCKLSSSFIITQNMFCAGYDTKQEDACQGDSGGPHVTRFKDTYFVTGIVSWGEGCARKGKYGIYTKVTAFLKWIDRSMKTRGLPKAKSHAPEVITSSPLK
Protocol: as §1, §2

[1] = target: human FIX and human FX mixed 1:1 (10 µM 10 µM); assay: SPR, bispecific captured on anti-human IgG Fc, second injection of a 1:1 mixture of FIX and FX

- binding result (human factor IX): binds
- binding result (human factor X): binds
- response above that of the anti-FX monospecific antibody (RU) [1]: 25 RU
B1: FIXxFX bispecific antibody IXAX-0436.0202.0128 (bispecific antibody, human IgG4 S228P, lambda)
heavy 1: EVQLVESGGGFVQPGGSLRLSCAVSGFTFNSYWMSWVRQAPGKGLEWVANINQDGSEKFYVASVKGRFTMSRDNAKKSVYVQMNSLRAEDTAVYYCAREGYSSISYYGMDVWGQGTTVTVSSASTKGPSVFPLAPCSRSTSESTAALGCLVKDYFPEPVTVSWNSGALTSGVHTFPAVLQSSGLYSLSSVVTVPSSSLGTQTYTCNVDHKPSNTKVDKRVESKYGPPCPPCPAPEFLGGPSVFLFPPKPKDTLMISRTPEVTCVVVDVSQEDPEVQFNWYVDGVEVHNAKTKPREEQYNSTYRVVSVLTVLHQDWLNGKEYKCKVSNKGLPSSIEKTISKAKGQPREPQVYTLPPSQEEMTKNQVSLTCLVKGFYPSDIAVEWESNGQPENNYKTTPPVLDSDGSFFLYSKLTVDKSRWQEGNVFSCSVMHEALHNHYTQESLSLSP
heavy 2: QVQLIQSGAEVQKPGASVKVSCKASRYSFTSYYMHWVRQAPGQGLEWMGIINPKSGSTSYAQKFQGRVTMTRDTSTSTVYMELSSLRSEDTAVYYCARDGYGSSSRCLQLWGQGTLVTVSSASTKGPSVFPLAPCSRSTSESTAALGCLVKDYFPEPVTVSWNSGALTSGVHTFPAVLQSSGLYSLSSVVTVPSSSLGTQTYTCNVDHKPSNTKVDKRVESKYGPPCPPCPAPEFLGGPSVFLFPPKPKDTLMISRTPEVTCVVVDVSQEDPEVQFNWYVDGVEVHNAKTKPREEQYNSTYRVVSVLTVLHQDWLNGKEYKCKVSNKGLPSSIEKTISKAKGQPREPQVYTLPPSQKEMTKNQVSLTCLVKGFYPSDIAVEWESNGQPENNYKTTPPVLDSDGSFFLYSKLTVDKSRWQEGNVFSCSVMHEALHNHYTQKSLSLSP
light: SYVLTQPPSVSVAPGETARITCGGDNIGRKSVYWYQQKSGQAPVLVIYYDSDRPSGIPERFSGSNSGNTATLTISRVEAGDEADYYCQVWDGSSDHWVFGGGTKLTVLGQPKAAPSVTLFPPSSEELQANKATLVCLISDFYPGAVTVAWKADSSPVKAGVETTTPSKQSNNKYAASSYLSLTPEQWKSHKSYSCQVTHEGSTVEKTVAPTECS
notes: also called N436 bispecific antibody
